# Data taken from US20240383958A1, “APELIN RECEPTOR AGONISTS AND USES THEREOF” (VISTERRA, INC., priority 2023, published 2024).
# Residue numbers refer to the chain shown, from its start. Names and notes keep the numbering of the source.
# T1: apelin receptor (AGTRL1) on CHO-K1 cells (UniProt P35414 1-380, limits assumed)
# T1 sequence (looked up): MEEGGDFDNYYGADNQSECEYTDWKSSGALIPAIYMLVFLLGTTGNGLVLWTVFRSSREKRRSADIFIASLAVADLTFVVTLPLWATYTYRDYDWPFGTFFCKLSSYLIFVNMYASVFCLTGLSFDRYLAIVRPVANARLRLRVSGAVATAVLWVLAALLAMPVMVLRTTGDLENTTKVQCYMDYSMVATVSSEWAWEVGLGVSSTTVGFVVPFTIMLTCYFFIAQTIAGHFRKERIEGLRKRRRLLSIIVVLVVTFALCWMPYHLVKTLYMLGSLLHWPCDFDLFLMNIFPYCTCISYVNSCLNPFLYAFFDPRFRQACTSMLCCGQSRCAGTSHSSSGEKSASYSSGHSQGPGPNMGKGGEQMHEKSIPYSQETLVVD
# B1: ELA-I (Fc fusion)
# chain: DKTHTSPPSPAPEAAGGPSVFLFPPKPKDTLMISRTPEVTCVVVDVSHEDPEVKFNWYVDGVEVHNAKTKPREEQYNSTYRVVSVLTVLHQDWLNGKEYKCKVSNKALPAPIEKTISKAKGQPREPQVYTLPPSREEMTKNQVNLTCLVKGFYPSDIAVEWESNGQPENNYKTTPPVLDSDGSFFLNSTLTVDKSRWQQGNVFSCSVMHEALHNHYTQKSLSLSPGKGGGGSGGGGSGGGGSKLRKHNSLQRRYMPLHSRVPFP
# B2: ELA-J (Fc fusion)
# chain: B1 chain with S249C, R252E, Y254C
# B3: ELA-A: Fc-linker fusion of wild-type elabela-22 KLRKHNCLQRRCMPLHSRVPFP (protein)
# chain: MRAWIFFLLCLAGRALADKTHTSPPSPAPEAAGGPSVFLFPPKPKDTLMISRTPEVTCVVVDVSHEDPEVKFNWYVDGVEVHNAKTKPREEQYNSTYRVVSVLTVLHQDWLNGKEYKCKVSNKALPAPIEKTISKAKGQPREPQVYTLPPSREEMTKNQVNLTCLVKGFYPSDIAVEWESNGQPENNYKTTPPVLDSDGSFFLNSTLTVDKSRWQQGNVFSCSVMHEALHNHYTQKSLSLSPGKGGGGSGGGGSGGGGSKLRKHNCLQRRCMPLHSRVPFP
# B4: ELA-B: Fc-linker fusion of elabela analogue KLNKHNCLQRRCMPLHSRVPFP (R3N) (protein)
# chain: B3 chain with R262N
# B5: ELA-G: Fc-linker fusion of elabela analogue KLRKHNCLQRRCMPLHSYVPFP (R18Y) (protein)
# chain: B3 chain with R277Y
# B6: ELA-L: Fc-linker fusion of elabela analogue KLRKHNCATRRCMPLHSRVPFP (L8A, Q9T) (protein)
# chain: B3 chain with L267A, Q268T
# B7: ELA-K: Fc-linker fusion of elabela analogue KLRKHNCLIRRCMPLHSRVPFP (Q9I) (protein)
# chain: B3 chain with Q268I
# B8: ELA-I: Fc-linker fusion of elabela analogue KLRKHNSLQRRYMPLHSRVPFP (C7S, C12Y) (protein)
# chain: B3 chain with C266S, C271Y
# B9: ELA-C: Fc-linker fusion of elabela analogue KLRKHNCLQRRCMILHSRVPFP (P14I) (protein)
# chain: B3 chain with P273I
# B10: ELA-F: Fc-linker fusion of elabela analogue KLRKHNCLKRRCMPLHSRVPFP (Q9K) (protein)
# chain: B3 chain with Q268K
# B11: ELA-H: Fc-linker fusion of elabela analogue KLRKHNCLQRRCMPYHSRVPFP (L15Y) (protein)
# chain: B3 chain with L274Y
# B12: APL-B: Fc-linker fusion of apelin analogue QRPRLSHKGPMVF (P12V) (protein)
# chain: MRAWIFFLLCLAGRALADKTHTSPPSPAPEAAGGPSVFLFPPKPKDTLMISRTPEVTCVVVDVSHEDPEVKFNWYVDGVEVHNAKTKPREEQYNSTYRVVSVLTVLHQDWLNGKEYKCKVSNKALPAPIEKTISKAKGQPREPQVYTLPPSREEMTKNQVNLTCLVKGFYPSDIAVEWESNGQPENNYKTTPPVLDSDGSFFLNSTLTVDKSRWQQGNVFSCSVMHEALHNHYTQKSLSLSPGKGGGGSGGGGSGGGGSQRPRLSHKGPMVF
# B13: APL-K: Leader-Fc-linker fusion of apelin analogue QRPRLQHKNPMAF (S6Q, G9N, P12A) (protein)
# chain: B12 chain with S265Q, G268N, V271A
# B14: APL-G: Fc-linker fusion of apelin analogue QRPRLSHKGPMAF (P12A) (protein)
# chain: B12 chain with V271A
# B15: APL-L: Leader-Fc-linker fusion of apelin analogue QRPRLQHKNPMAW (S6Q, G9N, P12A, F13W) (protein)
# chain: B12 chain with S265Q, G268N, V271A, F272W
# B16: APL-E: Fc-linker fusion of apelin analogue QRPRLSHKGPHPF (M11H) (protein)
# chain: B12 chain with M270H, V271P
# B17: APL-I: Leader-Fc-linker fusion of apelin analogue QRPRLSHKGPAAW (M11A, P12A, F13W) (protein)
# chain: B12 chain with M270A, V271A, F272W
# B18: APL-H: Leader-Fc-linker fusion of apelin analogue QRPRLSHKGPMHW (P12H, F13W) (protein)
# chain: B12 chain with V271H, F272W
# B19: APL-J: Leader-Fc-linker fusion of apelin analogue QRPRLSHKGPAAY (M11A, P12A, F13Y) (protein)
# chain: B12 chain with M270A, V271A, F272Y
# B20: APL-F: Fc-linker fusion of apelin analogue QRPRLSHKGPAPY (M11A, F13Y) (protein)
# chain: B12 chain with M270A, V271P, F272Y
# Target: T1, apelin receptor (AGTRL1) on CHO-K1 cells
# Assay: cell-based or functional assay
# Settings: not given
Molecule,beta-Arrestin EC50 (nM) Exp. 1 [nM],beta-Arrestin EC50 (nM) Exp. 2 [nM],cAMP EC50 (nM) Exp. 1 [nM],cAMP EC50 (nM) Exp. 2 [nM]
B1,17.3,150,22.9,3.19
B2,73.7,,18.6,133

# System: not listed separately
# Assay: Proteolysis during production detected using mass spectroscopy
# Assay type: physicochemical
# Settings: proteolytic stability
# Excerpt: Proteolysis during production was detected using mass spectroscopy, which provides insights into the proteolytic stability of the apelin receptor agonists.
row,Molecule,Proteolysis During Production?
1,B3,No
2,B4,No
3,B5,No
4,B6,No
5,B7,No
6,B8,Yes
7,B9,No
8,B10,No
9,B11,No
10,B12,No
11,B13,No
12,B14,No
13,B15,No
14,B16,Yes
15,B17,No
16,B18,No
17,B19,No
18,B20,No

# System: APJ-eGFP fusion protein
# Assay: Internalization assay, CHO-M1 cells expressing APJ-eGFP, high-content imaging
# Assay type: cell-based
# Parameters: key: 0: No Internalization; >1000; 2: 100-1000; 3: 10-100; 4: <10
# Settings: lowest concentration at which maximum internalization was observed; 0.914 nM to 2000 nM
# Description: In this example, the internalization of exemplary apelin receptor agonist was assessed. CHO-M1 cells expressing an APJ-eGFP fusion protein were stained and plated in a 96-well plate. Apelin receptor agonists were serially diluted and added to the wells at concentrations ranging from 0.914 nM to 2000 nM. The cells were later imaged using an Operetta CLS™ high-content analysis system. APJ-eGFP signal was measured in the membrane and cytoplasmic region, and the ratio of membrane signal to total signal was calculated (E ratio). An internalization score was assigned based on the lowest concentration of the compound at which maximum internalization was observed. The internalization score for each apelin receptor agonist was plotted against the EC50 values for cAMP signaling and beta-arrestin signaling as shown in FIG. 2 and FIG. 3.
row,Molecule,Internalization Score
1,"CSCC[C@H](NC(=O)[C@@H]1CSSC[C@H](NC(=O)[C@H](CC(N)=O)NC(=O)[C@H](Cc2c[nH]cn2)NC(=O)[C@H](CCCCN)NC(=O)[C@H](CCCNC(=N)N)NC(=O)[C@H](CC(C)C)NC(=O)[C@@H](N)CCCCN)C(=O)N[C@@H](CC(C)C)C(=O)N[C@@H](CCC(N)=O)C(=O)N[C@@H](CCCNC(=N)N)C(=O)N[C@@H](CCCNC(=N)N)C(=O)N1)C(=O)N1CCC[C@H]1C(=O)N[C@@H](CC(C)C)C(=O)N[C@@H](Cc1c[nH]cn1)C(=O)N[C@@H](CO)C(=O)N[C@@H](CCCNC(=N)N)C(=O)N[C@H](C(=O)N1CCC[C@H]1C(=O)N[C@@H](Cc1ccccc1)C(=O)N1CCC[C@H]1C(=O)O)C(C)C [Elabela-22, elabela-22, reference compound]",1 (>1000)
2,B3,3 (10-100)
3,B4,3 (10-100)
4,B5,1 (>1000)
5,B6,2 (100-1000)
6,B7,2 (100-1000)
7,B9,2 (100-1000)
8,B10,3 (10-100)
9,B11,2 (100-1000)
10,B12,2 (100-1000)
11,B13,0
12,B14,3 (10-100)
13,B15,0
14,B16,1 (>1000)
15,B17,1 (>1000)
16,B18,0
17,B19,1 (>1000)
18,B20,1 (>1000)
